We go through one substance from patent US9512195B2, “Insulin derivatives containing additional disulfide bonds” (Novo Nordisk A/S, priority 2010, dated 2016).

The target of this experiment is T1, human insulin receptor (human IR-A) (Homo sapiens, UniProt P06213).
T1 construct: solubilized human IR (holoreceptor); expressed in transfected cells; host or cells: baby hamster kidney (BHK) cells, stably transfected (pZem vector); detergent-solubilised and semipurified on wheat germ agglutinin
Kind of experiment: Insulin receptor binding assay (SPA, on solubilised insulin receptor). The conditions noted are these: comparison table of side chain and parent insulin mutations (rel. to HI). On the procedure: Insulin Receptor Binding Assay (on Solubilised Insulin Receptor)
Competition binding experiments were performed in 96-well plates (polystyrene Optiplate-96, PerkinElmer) on an Eppendorf epMotion 5075 robot using solubilized human IR (holoreceptor) semipurified by wheat germ agglutinin purification from baby hamster kidney (BHK) cells, which were stably transfected with the pZem vector containing the human IR-A or IR-B insert.

T1 sequence (P06213 28-746 isoform P06213-2 limits assumed): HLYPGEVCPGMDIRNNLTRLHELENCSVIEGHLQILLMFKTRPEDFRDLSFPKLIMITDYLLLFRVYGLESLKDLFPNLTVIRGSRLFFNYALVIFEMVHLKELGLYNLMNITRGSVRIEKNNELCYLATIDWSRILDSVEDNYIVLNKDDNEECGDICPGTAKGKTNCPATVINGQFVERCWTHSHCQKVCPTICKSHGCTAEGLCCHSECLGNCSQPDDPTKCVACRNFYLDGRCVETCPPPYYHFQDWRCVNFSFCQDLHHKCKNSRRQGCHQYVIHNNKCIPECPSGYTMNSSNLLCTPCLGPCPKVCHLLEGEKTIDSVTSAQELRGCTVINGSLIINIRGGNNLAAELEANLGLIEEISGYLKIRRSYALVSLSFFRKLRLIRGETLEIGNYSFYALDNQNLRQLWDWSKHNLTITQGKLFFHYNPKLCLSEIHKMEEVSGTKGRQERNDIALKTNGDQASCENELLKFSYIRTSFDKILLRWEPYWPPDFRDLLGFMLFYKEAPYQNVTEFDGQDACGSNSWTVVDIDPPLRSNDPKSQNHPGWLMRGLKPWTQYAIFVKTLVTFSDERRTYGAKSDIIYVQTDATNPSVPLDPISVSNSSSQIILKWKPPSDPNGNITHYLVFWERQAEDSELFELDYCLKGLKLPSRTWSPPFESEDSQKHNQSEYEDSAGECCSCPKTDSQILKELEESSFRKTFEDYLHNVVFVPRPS
T1 sequence (P06213 763-1382 partner limits assumed): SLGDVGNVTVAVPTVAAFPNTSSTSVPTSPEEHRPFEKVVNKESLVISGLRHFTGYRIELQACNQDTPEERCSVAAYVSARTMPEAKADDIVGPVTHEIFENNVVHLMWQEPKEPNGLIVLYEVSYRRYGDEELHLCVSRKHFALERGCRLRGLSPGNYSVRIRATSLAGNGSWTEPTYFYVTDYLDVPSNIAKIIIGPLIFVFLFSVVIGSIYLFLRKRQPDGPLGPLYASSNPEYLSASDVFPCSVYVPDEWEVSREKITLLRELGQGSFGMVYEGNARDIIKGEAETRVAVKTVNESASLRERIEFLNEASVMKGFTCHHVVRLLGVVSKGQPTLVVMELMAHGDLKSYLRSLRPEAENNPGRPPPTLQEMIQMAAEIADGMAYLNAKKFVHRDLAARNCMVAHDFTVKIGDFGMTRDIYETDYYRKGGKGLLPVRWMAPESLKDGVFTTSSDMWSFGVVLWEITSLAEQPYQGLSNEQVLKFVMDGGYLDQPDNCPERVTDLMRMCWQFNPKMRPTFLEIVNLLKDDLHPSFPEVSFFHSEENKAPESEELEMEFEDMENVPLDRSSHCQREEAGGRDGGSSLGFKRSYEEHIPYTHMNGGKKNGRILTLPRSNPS

As to “C18-gGlu- desB30: desB30 human insulin with side chain C18-gGlu- (cell cut off), no additional disulfide bond”, the “Relative IR-A affinity SPA assay (@ 0% HSA)” value (0% HSA) turned out to be 10.4. Further, for the setting “[…] (HSA)”, the “Relative IR-A affinity SPA assay (@ […]” value is on record as 0.70.
